Here are results for 1 protein from patent publication US20040265314A1 (Pfizer, published 2004).

This data set deals with the molecule itself. The data set can be described thus: Western blot of conditioned media, reducing against non-reducing SDS-PAGE. Here is the method:
Samples were combined with 2× SDS sample buffer with β-mercapatoethanol and boiled for 2 minutes. After boiling, the samples were loaded onto either a 4-20% gradient gel or 6% SDS gel. Gels were then transferred to nitrocellulose using an Invitrogen blotting apparatus (Invitrogen, Carlsbad, Calif.) and transfer buffer as provided by Invitrogen (Invitrogen, Carlsbad, Calif.). Gels were transferred for 2 hours at 30V under constant current. Nitrocellulose blots were blocked in 5% non-fat dry milk for 1 hour at room temperature. The blots were incubated with 0.5 μg/mL peptide polyclonal antibody overnight at 4° C. After incubation with the primary antibody, the blots were washed 3 times for 10 minutes each in washing buffer (1% Triton×100 (v/v), 0.1% SDS (w/v) in PBS, calcium and magnesium free) and then incubated for 30 minutes with mouse anti rabbit IgG conjugated to horseradish peroxidase (Santa Cruz Biotech, Santa Cruz, Calif.). The blots were washed 3 times for 10 minutes each in wash buffer and developed with the chemiluminescence reagent, ECL. (Amersham, Piscataway, N.J.). The blots were exposed to Kodak film and developed using a film developer.
The conditioned media from both COS and HEK293 transfectants were analyzed by Western blot under reducing and non-reducing conditions to assess whether CLCA1 exists as a multimer in the secreted milieu. […]

B1: human CLCA1 (Calcium Activated Chloride Channel 1) (other)
chain: NSLIQLNNNGYEGIVVAIDPNVPEDETLIQQIKDMVTQASLYLFEATGKRFYFKNVAILIPETWKTKADYVRPKLETYKNADVLVAESTPPGNDEPYTEQMGNCGEKGERIHLTPDFIAGKKLAEYGPQGRAFVHEWAHLRWGVFDEYNNDEKFYLSNGRIQAVRCSAGITGTNVVKKCQGGSCYTKRCTFNKVTGLYEKGCEFVLQSRQTEKASIMFAQHVDSIVEFCTEQNHNKEAPNKQNQKCNLRSTWEVIRDSEDFKKTTPMTTQPPNPTFSLLQIGQRIVCLVLDKSGSMATGNRLNRLNQAGQLFLLQTVELGSWVGMVTFDSAAHVQSELIQINSGSDRDTLAKRLPAAASGGTSICSGLRSAFTVIRKKYPTDGSEIVLLTDGEDNTISGCFNEVKQSGAIIHTVALGPSAAQELEELSKMTGGLQTYASDQVQNNGLIDAFGALSSGNGAVSQRSIQLESKGLTLQNSQWMNGTVIVDSTVGKDTLFLITWTTQPPQILLWDPSGQKQGGFVVDKNTKMAYLQIPGIAKVGTWKYSLQASSQTLTLTVTSRASNATLPPITVTSKTNKDTSKFPSPLVVYANIRQGASPILRASVTALIESVNGKTVTLELLDNGAGADATKDDGVYSRYFTTYDTNGRYSVKVRALGGVNAARRRVIPQQSGALYIPGWIENDEIQWNPPRPEINKDDVQHKQVCFSRTSSGGSFVASDVPNAPIPDLFPPGQITDLKAEIHGGSLINLTWTAPGDDYDHGTAHKYIIRISTSILDLRDKFNESLQVNTTALIPKEANSEEVFLFKPENITFENGTDLFIAIQAVDKVDLKSEISNIARVSLFIPPQTPPETPSPDETSAPCPNIHINSTIPGIHILKIMWKWIGELQLSIA
notes: 914 amino acids; also called hCLCA1; soluble CLCA1
As for B1, the binding result is “binds”.
